This is an account of results in IntAct's records for PubMed 15078334.

B1: Guanine nucleotide-binding protein alpha-1 subunit (Oryza sativa subsp. japonica (Rice)), Q0DJ33 (parent)
chain: MGSSCSRSHSLSEAETTKNAKSADIDRRILQETKAEQHIHKLLLLGAGESGKSTIFKQIKLLFQTGFDEAELRSYTSVIHANVYQTIKILYEGAKELSQVESDSSKYVISPDNQEIGEKLSDIDGRLDYPLLNKELVLDVKRLWQDPAIQETYLRGSILQLPDCAQYFMENLDRLAEAGYVPTKEDVLYARVRTNGVVQIQFSPVGENKRGGEVYRLYDVGGQRNERRKWIHLFEGVNAVIFCAAISEYDQMLFEDETKNRMMETKELFDWVLKQRCFEKTSFILFLNKFDIFEKKIQKVPLSVCEWFKDYQPIAPGKQEVEHAYEFVKKKFEELYFQSSKPDRVDRVFKIYRTTALDQKLVKKTFKLIDESMRRSREGT
partner: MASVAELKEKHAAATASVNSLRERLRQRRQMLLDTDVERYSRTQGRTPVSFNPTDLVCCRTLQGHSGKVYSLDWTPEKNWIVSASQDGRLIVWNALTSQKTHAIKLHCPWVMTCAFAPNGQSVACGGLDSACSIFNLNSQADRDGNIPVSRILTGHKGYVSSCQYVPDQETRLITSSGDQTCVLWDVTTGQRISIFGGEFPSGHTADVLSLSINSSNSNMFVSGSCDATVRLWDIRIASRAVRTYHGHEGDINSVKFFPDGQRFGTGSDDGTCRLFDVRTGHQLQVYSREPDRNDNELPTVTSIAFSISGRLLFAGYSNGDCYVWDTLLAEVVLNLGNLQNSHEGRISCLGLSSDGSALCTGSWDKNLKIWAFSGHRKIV

In this test the parent is B1. Particulars: with gbb_orysj RGB1, Q40687.
With MGSSCSRSHSLSEAETTKNAKSADIDRRILQETKAEQHIHKLLLLGAGESGKSTIFKQIKLLFQTGFDEAELRSYTSVIHANVYQTIKILYEGAKELSQVESDSSKYVISPDNQEIGEKLSDIDGRLDYPLLNKELVLDVKRLWQDPAIQETYLRGSILQLPDCAQYFMENLDRLAEAGYVPTKEDVLYARVRTNGVVQIQFSPVGENKRGGEVYRLYDVGGLRNERRKWIHLFEGVNAVIFCAAISEYDQMLFEDETKNRMMETKELFDWVLKQRCFEKTSFILFLNKFDIFEKKIQKVPLSVCEWFKDYQPIAPGKQEVEHAYEFVKKKFEELYFQSSKPDRVDRVFKIYRTTALDQKLVKKTFKLIDESMRRSREGT [Q223L], the “effect of a mutation on the interaction” value is “disrupting interaction”.
